Test [1] addresses T1, mGLP‐1 receptor (mouse, UniProt O35659 22-463).
T1 construct: mouse glucagon-like peptide-1 receptor, pcDNA3.1(+) plasmid from ThermoFisher; also called mouse GLP‐1 receptor; source: COS-7, transiently transfected (pcDNA3.1(+)), on whole cells
T1 sequence (looked up): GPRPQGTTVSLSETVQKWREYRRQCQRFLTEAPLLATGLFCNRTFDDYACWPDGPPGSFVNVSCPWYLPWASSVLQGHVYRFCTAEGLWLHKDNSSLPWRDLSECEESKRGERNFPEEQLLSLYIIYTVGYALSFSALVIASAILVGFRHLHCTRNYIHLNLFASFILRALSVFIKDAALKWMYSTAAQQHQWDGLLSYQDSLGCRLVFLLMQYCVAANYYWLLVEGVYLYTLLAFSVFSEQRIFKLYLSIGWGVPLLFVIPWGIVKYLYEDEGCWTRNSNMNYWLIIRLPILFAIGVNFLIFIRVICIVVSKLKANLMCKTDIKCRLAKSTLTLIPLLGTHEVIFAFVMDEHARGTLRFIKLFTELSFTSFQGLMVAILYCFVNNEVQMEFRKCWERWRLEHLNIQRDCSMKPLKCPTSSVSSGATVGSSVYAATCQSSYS

Test [2] addresses T1, mGLP‐1 receptor. This is another data set of the same source.
The target of test [3] is T1, mGLP‐1 receptor. To be noted: one partner purified.
Test [4] has as its target T2, mGLP‐2 receptor (mouse, UniProt Q5IXF8 1-512).
T2 construct: mouse glucagon-like peptide-2 receptor, pcDNA3.1(+) plasmid from ThermoFisher; also called mouse GLP‐2 receptor; source: COS-7, transiently transfected (pcDNA3.1(+)), on whole cells
T2 sequence (looked up): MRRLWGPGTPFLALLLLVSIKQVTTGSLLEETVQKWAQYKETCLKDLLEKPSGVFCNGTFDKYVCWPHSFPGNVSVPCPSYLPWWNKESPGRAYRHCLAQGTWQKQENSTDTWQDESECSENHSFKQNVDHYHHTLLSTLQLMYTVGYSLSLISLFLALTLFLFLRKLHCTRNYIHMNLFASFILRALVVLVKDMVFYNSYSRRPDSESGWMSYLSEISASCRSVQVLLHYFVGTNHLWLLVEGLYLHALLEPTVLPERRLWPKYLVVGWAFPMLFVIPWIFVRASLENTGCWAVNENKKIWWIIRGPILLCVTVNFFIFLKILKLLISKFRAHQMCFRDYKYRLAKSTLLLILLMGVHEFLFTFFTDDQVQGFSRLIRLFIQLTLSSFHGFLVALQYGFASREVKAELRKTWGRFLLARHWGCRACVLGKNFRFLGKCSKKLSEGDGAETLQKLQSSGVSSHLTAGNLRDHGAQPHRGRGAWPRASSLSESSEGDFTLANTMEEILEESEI
To be noted: one partner purified.

The target in test [5] is T3, rGLP‐2 receptor (rat, UniProt Q9Z0W0 1-550).
T3 construct: rat glucagon-like peptide-2 receptor, pcDNA3.1(+) plasmid from ThermoFisher; also called rat GLP‐2 receptor; source: COS-7, transiently transfected (pcDNA3.1(+)), on whole cells
T3 sequence (looked up): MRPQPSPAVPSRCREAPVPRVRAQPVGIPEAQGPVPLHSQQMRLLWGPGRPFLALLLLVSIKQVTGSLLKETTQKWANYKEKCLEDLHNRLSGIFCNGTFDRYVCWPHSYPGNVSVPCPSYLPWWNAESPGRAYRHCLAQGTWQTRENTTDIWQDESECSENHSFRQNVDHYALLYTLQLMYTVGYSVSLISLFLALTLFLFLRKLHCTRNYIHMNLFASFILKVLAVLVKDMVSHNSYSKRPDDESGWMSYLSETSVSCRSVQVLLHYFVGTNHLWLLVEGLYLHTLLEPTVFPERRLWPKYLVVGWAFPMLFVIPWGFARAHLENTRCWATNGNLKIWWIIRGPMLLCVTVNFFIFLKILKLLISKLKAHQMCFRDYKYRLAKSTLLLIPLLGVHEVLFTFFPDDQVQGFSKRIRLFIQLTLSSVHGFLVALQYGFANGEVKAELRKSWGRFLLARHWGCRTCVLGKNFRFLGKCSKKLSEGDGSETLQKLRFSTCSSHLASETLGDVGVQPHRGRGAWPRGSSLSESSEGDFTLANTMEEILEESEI
The note with it: one partner purified.

In test [6] the target is T1, mGLP‐1 receptor. The note with it: one partner purified. This is another data set of the same source.
Test [7] addresses T2, mGLP‐2 receptor. The note with it: one partner purified. The source holds these as a separate data set.
Test [8] has as its target T3, rGLP‐2 receptor. The note with it: one partner purified. This is another data set of the same source.

Like-named read-outs stand apart in the source and are kept apart here.

In test [1], [^125I]‐hGLP‐2(3–33,M10Y) (peptide) registered a % max (specific binding of the radioligand, normalised to its binding to the mGLP-2 receptor) of 93.3%.

In test [2], [^125I]‐hGLP‐2(1–33,M10Y) (peptide) returned a % max (specific binding of the radioligand, normalised to its binding to the mGLP-2 receptor) of 84.5%.

B1: hGLP‐2(1–33) (peptide)
chain: HADGSFSDEMNTILDNLAARDFINWLIQTKITD
What is called Ki is the dissociation constant of the complex between target and ligand, obtained from inhibition or displacement. Higher therefore signals weaker binding. As a reminder, the pIC50 is the negative decadic logarithm of the IC50, by convention in mol/L. Regarding B1, the Ki came to 208 nM in test [3]; 6.6 nM in test [4]; 5.4 nM in test [5]; 183 nM in test [6]; 18 nM in test [7]; 6.5 nM in test [8]. The pIC50 was 6.7 in test [3]; 8.2 in test [4]; 8.3 in test [5]; 6.7 in test [6]; 7.7 in test [7]; 8.2 in test [8].
